This note sets out measurements from patent US20240247063A1 (Janssen / Centocor, published 2024).

Substitutions are numbered along the chain they refer to. Numbers in names are those of the source. Where “and” joins values, the source holds several entries; their conditions need not be identical. Equal entries are not always repeated.

Experiment [1] has as its target T1, T Cell Receptor Beta Variable 17 (Vβ17) on the surface of human T cells (human).
T1 construct: whole, on cells; Polyclonal Vβ17+ T cells of donors; also called V 17; Vb17
Put plainly: flow cytometry, binding to CD8+ T cells isolated from PBMCs, donor HPU 08694. For orientation: A flow cytometer gives signals particle by particle.

Experiment [2] deals with T1, T Cell Receptor Beta Variable 17 (Vβ17) …. Description: flow cytometry, binding to CD8+ T cells isolated from PBMCs, donor HPU 09381.
The target is the same in experiment [3]. Put plainly: flow cytometry, CD8+ T cells from Vβ17 non-depleted PBMCs.
Experiment [4] shares this target. Put plainly: flow cytometry, binding to CD8+ T cells isolated from PBMCs, donor D203517.
For experiment [5] the target is unchanged. Description: flow cytometry, binding to CD8+ T cells isolated from PBMCs (only the Vβ17 non-depleted curve rises).
Experiment [6] has the same target. Description: flow cytometry, FLU MP 58-stimulated enriched CD8+ T cells, anti-human IgG4 Fc-PE.
Protocol: Mouse anti-human IgG4 Fc-PE secondary antibody was used to detect the bispecific antibody.
Bispecific antibody binding affinities to CD8+ T cell were determined by flow cytometry.
Experiment [7] has the same target. Put plainly: flow cytometry, MFI, pan T cells of donor NHV21-07174.
Protocol: (§1) Binding assay was done with isolated Pan T cells from 2 donors. Pan T cells were isolated from Whole PBMCs. 1 μL Live dead (1:1000 diluted) and Fc Block 2 μL/well was added. 100 μL of the cell suspension was seeded in 96 well V bottom plate at 100,000 cell per well and incubated for 10 minutes at 4° C. The plate was washed by adding 190 μL FACS buffer spun at 1500 rpm for 5 minutes. 100 μL diluted test antibodies was added to the plate and the plate was incubated at 37° C. 5% CO₂ for 45 minutes. Wash step was repeated. 100 μL diluted Secondary antibody (0.5 μL/well in 100 μL FACS buffer) was added and the plate was incubated at 4° C. for 45 minutes. Wash step was repeated. 100 μL cytofix was added to the pellet and the plate was incubated at 4° C. for 10 minutes. Wash step was repeated. 100 μL FACS buffer was added to the pellet and sample was analyzed by Flow cytometry. Cells were gated on FSC/SSC, followed by live cell gating.
For experiment [8], the target named is T2, prostate-specific membrane antigen (PSMA) on C4-2B cells (human, UniProt Q04609 1-750).
T2 construct: whole, on cells
T2 sequence (Q04609 whole entry): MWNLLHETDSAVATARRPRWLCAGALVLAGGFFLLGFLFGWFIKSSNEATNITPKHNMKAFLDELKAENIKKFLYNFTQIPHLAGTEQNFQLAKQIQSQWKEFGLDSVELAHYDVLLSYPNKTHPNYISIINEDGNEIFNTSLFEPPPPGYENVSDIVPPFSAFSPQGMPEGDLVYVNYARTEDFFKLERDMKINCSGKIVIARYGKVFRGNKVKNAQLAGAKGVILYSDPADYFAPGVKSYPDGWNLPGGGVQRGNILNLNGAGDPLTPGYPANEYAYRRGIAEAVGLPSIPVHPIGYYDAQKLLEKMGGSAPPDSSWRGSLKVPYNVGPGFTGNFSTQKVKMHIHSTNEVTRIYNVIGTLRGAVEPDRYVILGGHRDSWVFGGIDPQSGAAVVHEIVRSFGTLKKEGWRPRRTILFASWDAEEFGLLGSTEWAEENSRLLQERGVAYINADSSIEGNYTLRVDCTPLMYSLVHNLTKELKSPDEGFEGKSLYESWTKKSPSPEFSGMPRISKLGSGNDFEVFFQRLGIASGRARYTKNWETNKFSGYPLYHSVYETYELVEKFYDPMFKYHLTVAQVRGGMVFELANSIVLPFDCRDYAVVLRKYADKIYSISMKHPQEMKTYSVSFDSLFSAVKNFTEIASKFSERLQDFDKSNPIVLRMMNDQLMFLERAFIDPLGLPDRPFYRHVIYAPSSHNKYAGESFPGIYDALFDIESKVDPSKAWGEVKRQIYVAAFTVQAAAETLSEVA
Put plainly: flow cytometry on C4-2B cells, APC secondary antibody.
Protocol: The C4-2B cells were centrifuged and re-suspended in DPBS and counted. 4 million cells were re-suspended in 8 mL of DPBS and 8 μL of Violet Fluorescent Dye was added and incubated for 15 min. in 4° C. Eight milliliters FACS buffer was added to neutralize mix and 200 μL per well was seeded. The plate was centrifuged and re-suspended in 100 μL of antibody dilutions accordingly and incubated for 30 min. in incubator. 10 μg/mL conc. of each antibodies were prepared in 200 μL stock and further diluted to 8 points by adding 60 μL to 120 μL of FACS serially buffer to get 3-fold dilution. 100 μL of FACS buffer were added to each well, centrifuged, re-suspended in 100 μL FACS buffer with 0.5 μL/well con. Secondary antibody tagged with APC & incubated for 30 min. 4° C. Next, 100 μL of FACS buffer was added to each well, centrifuged, re-suspended in 100 μL BD Cytofix & incubated for 10 min. 4° C. 100 μL of FACS buffer were added to each well, centrifuged, re-suspended in 100 μL FACS buffer, stored at 4° C. Data was acquired in Flow cytometer and the data was analyzed.

For experiment [9], the target named is T1, T Cell Receptor Beta Variable 17 (Vβ17) …. Put plainly: flow cytometry, % binding, pan T cells of donor NHV21-07171.
Protocol: as §1
For experiment [10] the target is unchanged. Put plainly: flow cytometry, % binding, pan T cells of donor NHV21-07174.
Protocol: as §1
The target is the same in experiment [11]. Put plainly: flow cytometry, MFI, pan T cells of donor NHV21-07171.
Protocol: as §1
Experiment [12] deals with T3, CD123 on Kasumi-3 AML cells (human, UniProt P26951 19-378).
T3 construct: whole, on cells; also called interleukin-3 receptor; IL-3R
T3 sequence (P26951 19-378): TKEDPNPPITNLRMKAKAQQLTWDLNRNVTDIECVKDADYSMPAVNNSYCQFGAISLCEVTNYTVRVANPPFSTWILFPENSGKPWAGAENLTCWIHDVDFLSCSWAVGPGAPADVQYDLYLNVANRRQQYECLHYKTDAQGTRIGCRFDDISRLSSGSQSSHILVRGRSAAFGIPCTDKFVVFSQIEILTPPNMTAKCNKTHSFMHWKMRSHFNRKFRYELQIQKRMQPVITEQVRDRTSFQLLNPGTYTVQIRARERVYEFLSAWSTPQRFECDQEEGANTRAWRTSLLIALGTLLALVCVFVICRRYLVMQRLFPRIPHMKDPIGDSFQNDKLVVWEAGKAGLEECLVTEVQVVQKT
Put plainly: flow cytometry, binding to Kasumi3 AML cells.

T1 sequence (A0A075B6N1 22-114): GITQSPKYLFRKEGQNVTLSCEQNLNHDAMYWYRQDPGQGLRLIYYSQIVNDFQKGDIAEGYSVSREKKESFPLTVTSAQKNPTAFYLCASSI

B1: VB11 (anti-Vβ17/anti-CD123) bispecific antibody (bispecific antibody, human IgG4 S228P, kappa, F234A L235A)
heavy 1: QVQLQESGPGLVKPSETLSLTCTVSGYSITSGYFWNWIRQPPGKGLEWIGYISYDGSNNYNPSLKSRVTISRDTSKNQFSLKLSSVTAADTAVYYCASPSPGTGYAVDYWGQGTLVTVSSASTKGPSVFPLAPCSRSTSESTAALGCLVKDYFPEPVTVSWNSGALTSGVHTFPAVLQSSGLYSLSSVVTVPSSSLGTKTYTCNVDHKPSNTKVDKRVESKYGPPCPPCPAPEAAGGPSVFLFPPKPKDTLMISRTPEVTCVVVDVSQEDPEVQFNWYVDGVEVHNAKTKPREEQFNSTYRVVSVLTVLHQDWLNGKEYKCKVSNKGLPSSIEKTISKAKGQPREPQVYTLPPSQEEMTKNQVSLSCAVKGFYPSDIAVEWESNGQPENNYKTTPPVLDSDGSFFLVSRLTVDKSRWQEGNVFSCSVMHEALHNRFTQKSLSLSLGK
light 1: DIQMTQSPSSLSASVGDRVTITCRSSQSLVHSNGNTYLHWYQQKPGKAPKFLIYKVSNRFSGVPSRFSGSGSGTDFTLTISSLQPEDFATYYCSQSTHVPFTFGQGTKLEIKRTVAAPSVFIFPPSDEQLKSGTASVVCLLNNFYPREAKVQWKVDNALQSGNSQESVTEQDSKDSTYSLSSTLTLSKADYEKHKVYACEVTHQGLSSPVTKSFNRGEC
heavy 2: EVQLVQSGAEVKKPGESLKISCKGSGYSFTSYWISWVRQMPGKGLEWMGIIDPSDSDTRYSPSFQGQVTISADKSISTAYLQWSSLKASDTAMYYCARGDGSTDLDYWGQGTLVTVSSASTKGPSVFPLAPCSRSTSESTAALGCLVKDYFPEPVTVSWNSGALTSGVHTFPAVLQSSGLYSLSSVVTVPSSSLGTKTYTCNVDHKPSNTKVDKRVESKYGPPCPPCPAPEAAGGPSVFLFPPKPKDTLMISRTPEVTCVVVDVSQEDPEVQFNWYVDGVEVHNAKTKPREEQFNSTYRVVSVLTVLHQDWLNGKEYKCKVSNKGLPSSIEKTISKAKGQPREPQVYTLPPSQEEMTKNQVSLWCLVKGFYPSDIAVEWESNGQPENNYKTTPPVLDSDGSFFLYSRLTVDKSRWQEGNVFSCSVMHEALHNHYTQKSLSLSLGK
light 2: EIVLTQSPGTLSLSPGERATLSCRASQSVSSSYLAWYQQKPGQAPRLLIYGASSRATGIPDRFSGSGSGTDFTLTISRLEPEDFAVYYCQQDYGFPWTFGQGTKVEIKRTVAAPSVFIFPPSDEQLKSGTASVVCLLNNFYPREAKVQWKVDNALQSGNSQESVTEQDSKDSTYSLSSTLTLSKADYEKHKVYACEVTHQGLSSPVTKSFNRGEC
The term EC50 denotes the concentration needed to bring the measured effect to its halfway point. The low end stands for higher potency in that assay, the high end for lower potency in that assay. In general, EC50 (read off the curve) refers to the concentration that produces a half-maximal response. Regarding B1, the EC50 is 1.9 nM in experiment [1]; 0.8 nM in [2]; 1.26 nM in experiment [4]; 12.2 nM in experiment [5]; 1.35 µg/mL and 9 nM in experiment [6]. Also, the “EC50 (read off the curve)” value in experiment [1] was ~0.2 µg/mL; in experiment [2] it was ~0.1 µg/mL; in experiment [3] it was ~0.2 µg/mL; in experiment [4], ~0.2 µg/mL.

B2: VB17B25 (PSMB410 × B17B21-N33S) (bispecific antibody, human IgG1, kappa, L234A L235A)
chain: not shown
heavy: QVQLQESGPGLVKPSETLSLTCTVSGYSITSGYFWNWIRQPPGKGLEWIGYISYDGSNNYNPSLKSRVTISRDTSKNQFSLKLSSVTAADTAVYYCASPSPGTGYAVDYWGQGTLVTVSSASTKGPSVFPLAPSSKSTSGGTAALGCLVKDYFPEPVTVSWNSGALTSGVHTFPAVLQSSGLYSLSSVVTVPSSSLGTQTYICNVNHKPSNTKVDKKVEPKSCDKTHTCPPCPAPEAAGGPSVFLFPPKPKDTLMISRTPEVTCVVVSVSHEDPEVKFNWYVDGVEVHNAKTKPREEQYNSTYRVVSVLTVLHQDWLNGKEYKCKVSNKALPAPIEKTISKAKGQPREPQVYTLPPSREEMTKNQVSLSCAVKGFYPSDIAVEWESNGQPENNYKTTPPVLDSDGSFFLVSKLTVDKSRWQQGNVFSCSVMHEALHNRFTQKSLSLSPGK
light: B1 light 1 with N33S
notes: First chain is the PSMB410 scFv-Fc; also called Vβ17B25; Vβ17×PSMA
Take B2: the EC50 is ~3 µg/mL in experiment [7]; 2.1 µg/mL in experiment [8]; 0.3 µg/mL in experiment [9]; 0.2 µg/mL in experiment [10]; 1.5 µg/mL in experiment [11].

B3: VB13 (Vβ17×Null) bispecific antibody (bispecific antibody, human IgG4 S228P, kappa, F234A L235A)
heavy 1: B1 heavy 1
light 1: B1 light 1
heavy 2: not shown
light 2: not shown
notes: Knob-into-hole human IgG4; also called Vβ17XNULL; V 17 null control bispecific
With B3, the concentration for a half-maximal effect (EC50) in [1] was 1.5 nM; in experiment [2], 1.5 nM; in experiment [4] it was 1.4 nM; in [5] it was 12.6 nM; in [6], 2.8 µg/mL and 18.7 nM. Besides, the concentration giving a half-maximal response (EC50 (read off the curve)) is ~0.3 µg/mL in experiment [1], ~0.2 µg/mL in experiment [2], ~0.3 µg/mL in experiment [3] and ~0.2 µg/mL in experiment [4]. Also, in experiment [12], the binding result is listed as “no binding (tested: about 20 µg/mL)”.
